Source: the supplement of paper PMC12042874
± gives the uncertainty stated by the source.

assay: amyloid nucleation score (Sup35N fusion, yeast selection) (log enrichment); library NNK1; higher = more nucleation; inactive = no reads after selection
Outline: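 The nucleation score, computed with DiMSum, is the log enrichment of output over input reads, centred on the mode score of non-aggregating sequences. Sequences with under 100 input reads were dropped. Reads were generated by Illumina sequencing of plasmid inserts from psi-negative yeast with Sup35N fused to peptides of 20 random codons, induced with 100 μM copper sulfate for 24 hours and grown 7 days at 30°C on medium lacking adenine and uracil.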

Substance | amyloid nucleation score
SRFDMLSRALRCMK | 1.35 ± 0.34
RMTWQM | -0.885 ± 2.1
IIIPFLSNSCEFMWL | 4.81 ± 0.076
GLKLKIREYSAFLCR | -0.027 ± 0.36
DFILLVVLYFVLYFFTCMVL | 0.22 ± 0.72
SSGDVPGFSPYGKWDFWWTC | -0.151 ± 0.45
IIKFSNDWDVDKFSFGSVLE | 0.596 ± 0.63
VPVVRYYFTQFMDKYADDMF | 1.36 ± 0.58
LACCFIVSWFNGSGSLTSRS | 7.497 ± 0.05
AHGRHDLRWCLRSRDSMWRA | 1.2 ± 0.53
LYDLNIKWWRGASLVECECL | 0.139 ± 0.41
SSSYDY | -0.545 ± 0.28
GETRGVPPNFFTPIIQLSSA | inactive
GLVSRIAGLIHEIDGRFWMQ | inactive
IVMVVMSSFGINEHPPDNQN | 1.35 ± 0.27
TCNQS | inactive
NQMVWMVELWRTVDCVVLNV | -0.17 ± 0.34
CCQSFLLKSPSYRAMAFIWW | -0.929 ± 0.33
MLEQAFESFPTWRTT | -0.06 ± 0.5
STSDMLVDSRQIVGEYTSDL | -1.3 ± 1.7
DKCCKLSRD | 0.972 ± 0.58
LVFVSFIW | 0.942 ± 0.17
SVGEDSSFRRDSKINEGDCD | 0.968 ± 0.85
TVDVPLAASSNKYKFMFYCE | 3.92 ± 0.098
TNSKSSSVGSKATQHN | 0.077 ± 0.35

Substance | amyloid nucleation score
MNFSYLWVYGNGL | -0.629 ± 0.63
GLVHYMLLDPLAVNLSGCND | -0.301 ± 0.3
FFSKNT | -0.041 ± 0.26
NICTLYPT | 0.236 ± 1.1
YFTRFGHSELRSFMLVGTDM | -0.007 ± 0.28
GLVNFTVVLTFV | 2.82 ± 0.3
EVADVGKMMIVVGDCRVFRW | 5.593 ± 0.048
CGYCD | -1.69 ± 2.4
PVLRAWYGRLFCRYSWLWQC | 0.274 ± 0.46
VNCGRMSAGCREVGWVDGES | -0.316 ± 0.89
TRTKSGFSLYVRR | 1.1 ± 0.71
NVMQKNLFGSCIILLSWSLS | 0.078 ± 0.26
NLKADRFDHGSPEVVSLSFI | -0.027 ± 0.98
FVVSDIMGDLRKM | 1.38 ± 0.71
TCCDRSRCSESSEGRRFQRT | 0.162 ± 0.3
YGNIGV | 0.231 ± 0.81
VDSLITRSWVDHHNKYNHGI | 0.635 ± 0.64
VKTPTDRSYRLHGNFIGCWA | -0.576 ± 0.38
LLNSFPSNCQVKDMELQGME | -0.176 ± 0.93
CGDGPHHVLCLSVVDICVGC | -1.04 ± 1.6
VYLSRHTNRG | 1.53 ± 0.43
LYGSVKNIKRLPHCFMLCLC | 0.616 ± 0.36
YSKWSISTFECMWAKNWRGD | 1.66 ± 0.39
VHWRYWFVLISLDQRIGKA | 0.199 ± 0.21
YASLNYLLQGRVRA | inactive

Substance | amyloid nucleation score
NERSSEELAPLDTQWSMLRG | -0.124 ± 0.69
YERVRPGAIHFRIETI | 0.146 ± 0.53
AFCNVADCNIRGSWLVRLRR | 1.21 ± 0.41
RNLEVIYNSI | 0.229 ± 0.52
FEGRGFKDNATQENNSEFAS | 0.4 ± 0.46
GFSANGLPCGAEAGEVFYTV | -0.725 ± 0.81
ISCWRNYLDLSSLYLFALFI | 2.53 ± 0.077
HMLWSFLLITWYGMICRKGG | -0.15 ± 0.39
LCLRLCPLMVWSCVLERWVS | -1.78 ± 2.7
CSYDNVPDLFC | 0.582 ± 0.68
PRRQETWANEGHGM | 0.426 ± 0.93
VLTFPLFCIGKLIKN | 6.033 ± 0.045
SRILRLLHTVHCDGVGERLR | -0.104 ± 1.1
FRVMDRVGSCLIVELTPG | 0.084 ± 0.55
AVIVVV | 0.175 ± 0.39
SFVLGYSFLRKSCWFNVVTL | inactive
LWFAHNS | 0.462 ± 0.59
NGFGAYVYNSYLRFGNLSRA | inactive
GIPYSVDGYVLVDVSITTIA | inactive
CVSCVSGILFEMCPSSFPNQ | -0.578 ± 0.9
MSKIGLLRLDDYHRMGFCKQ | -0.469 ± 0.38
KMSNCWLF | -0.881 ± 0.55
LSPHLPSESLGLGPMS | -0.921 ± 1.4
KSLFNYCVFSDGL | 7.281 ± 0.051
RHIYVSVNERLYVEFNYIAG | 2.19 ± 0.34

Substance | amyloid nucleation score
MSVGSRFTHHIMWTVTKNRV | 0.424 ± 1
ITVYLMALVNNVCG | 3.38 ± 0.13
GFYGRL | -0.774 ± 0.74
KILRYSTTGSSELEWWNMRS | 0.069 ± 0.49
GLLTMIPKDYNCRISYLVHT | 0.015 ± 0.64
LVLSSPRHDMSCSYAHFNMN | 1.38 ± 0.43
MTRNELLSLSLARCVGANAL | 0.088 ± 1.2
FLFRGV | -0.28 ± 0.91
FTWERSH | 0.655 ± 0.68
NCASLLGRFSDDLIDHLSVL | 2.02 ± 0.62
KEYNLLHDL | -0.691 ± 1.7
TWCTV | 0.082 ± 0.28
ERDCPYRTMGLRCVNYRFRG | 3.64 ± 0.14
LCKFYPAFTGTTCTNLLSVW | 0.321 ± 0.84
CFVVVCLFMKA | inactive
RQSLRRSYHHRWKRDVMR | inactive
QPNSWELWPCSDLRIRLVEE | 0.104 ± 0.34
RWYVFWQSMGCVRSGVWVKG | 0.195 ± 0.31
SGSWNMCNHVRVNCYAIDKV | 0.167 ± 0.3
SKYDLISRANVLFVSANYRH | 0.511 ± 0.76
HPLLMYWRRTFVEHRLYLT | 0.031 ± 1.2
REFGLLAWVELLFWATFR | -0.676 ± 0.94
KLIPCLLVITINLGHKATLS | 0.482 ± 0.39
GSWYHDRVSLCFFIFDCG | 4.82 ± 0.076
DAADMTGLFNRLLCVFEYVW | 0.797 ± 0.66

Substance | amyloid nucleation score
LYVFSEKIFCRNGFSSYISL | 0.855 ± 0.74
RTHEFQTLMEAFRSNTAVSA | -0.031 ± 0.22
LFTNMYSRVLTFLM | -0.441 ± 1.7
FCCNWSCNCLRMG | 7.799 ± 0.051
RWLHVIKL | 2.21 ± 0.35
YRPIDFLIPYSSVML | inactive
ASTYMYGFSYIYMLVNRCEC | 1.59 ± 0.14
KVGLLWGT | 0.197 ± 0.93
NPRISCFVLQIRSAALSQSV | -0.007 ± 0.92
RYHSY | -0.008 ± 0.77
GSLFWEVMKVMADGMCDVSL | 0.59 ± 0.54
LTSQSLVVNFLLYCTG | 1.1 ± 0.85
GILKCAYKT | 0.664 ± 0.66
GRLVVIAYQMQSCDSTMD | -0.115 ± 0.42
SYEMWLEHYMRRQQRRP | -0.282 ± 1.7
TYMTSTMQLRHTFFRSQANL | 2.7 ± 0.098
SAWWIGMMWCSSSSYLEIGG | -0.586 ± 0.39
GCKSGDGQRVGVLLNQNCTR | 0.863 ± 0.56
RVGYH | -0.135 ± 0.35
SFSVSLTTYVYYFICHYAGI | 1.96 ± 0.13
LGVKFVQDGTINKGHLKR | -0.543 ± 0.63
MTRWTGRSLTLMRLQVVLRP | -0.413 ± 0.62
SPLVDLYDFRWRLESRYKNY | 0.107 ± 0.61
AALWHFNFINRSFRTVGPAG | -0.569 ± 0.38
WWKRKTSFVSRSYQVRFAQF | -0.058 ± 1.1

Substance | amyloid nucleation score
FYGCNSRA | -0.037 ± 0.97
GFGAQPWRARSMFYK | 0.566 ± 0.67
CASRNCGNYVK | inactive
TLNDYYCFMLCGAVNG | 0.071 ± 0.63
THSIFFVQLRFPFMLTTS | -0.269 ± 0.78
ILGAI | 1.66 ± 0.58
DSVLQDTLIMWCSMKTVSPS | -0.075 ± 0.29
DRLSAT | 0.272 ± 1.2
LLRNGFHSVLI | 0.488 ± 0.25
SFYQAYYVACCKYNVEY | 5.96 ± 0.063
SKILGISKVNCGALL | -1.82 ± 1.8
LRDISEH | -0.588 ± 0.53
HYVGSLMVSW | 0.188 ± 0.81
IYGDGNCIIFLMGQRP | 6.38 ± 0.085
ADDGAVLCRCEAGGTSWSVC | inactive
YSARMLIRLSLLGFLPVSAP | 0.711 ± 0.55
LDMVANYLYSGSALILYCHL | -1.17 ± 2.1
DVVICRYSAVIRVFLTLKFK | -0.202 ± 0.49
MAPEFCIEDKIRVVPFLIPI | 0.197 ± 0.89
CPWTVMLHFSYDYCARGFKV | -0.505 ± 0.57
AFYGVDFSSGRGLFSY | -0.574 ± 1.1
WTQPVYLAEEGLRVLDNPKA | inactive
MRPVSLYGFIFCCAFQGLWF | 4.99 ± 0.07
GCLKTVGCA | -0.22 ± 0.64
GTTDIFFLLILFFQVVN | 1.14 ± 0.73

Substance | amyloid nucleation score
ISRISVSEEFKGCMGREWVT | 1.1 ± 0.52
CAGWFRTFGAYKDAMARLAR | inactive
SCMPHYEFMWRGAQAPWGLD | 0.183 ± 0.5
DIFSA | 1.49 ± 0.43
NSTPLADRCSVGMLPALKAD | -0.351 ± 0.63
IAGIEGPI | -0.182 ± 1.3
LFGEFRNEINAI | 0.031 ± 0.31
SELPVTGWLLIFLGELTWS | -0.88 ± 1.3
LQFGWFMIYLIKFSPNLRGN | -1.18 ± 1.7
IYWCMM | 7.125 ± 0.057
GRIVVTSQFMMIGRWGSPPP | 3.29 ± 0.1
NADCLIDDFASFDHMVPG | 0.004 ± 0.51
SGILNAKLNSIGIEKSYAGF | -2.07 ± 2.4
MGHTGYFQCKVATWCEGE | 0.792 ± 0.92
VWVKAMSFFWVIALPHAVYV | inactive
LALHSNNQLFF | 0.839 ± 0.81
CFNLALLRVLAGTKLYSFMG | 0.64 ± 0.35
MWIPFRVYLRAH | inactive
FDIVDANKGAAPGKTVYLWR | 0.641 ± 0.93
MMLGSGFLCLLMYDGVRFLL | -0.839 ± 0.62
FQRTGQKMWNNKKCSGRQHD | -0.648 ± 0.51
IKSEAWICCTSLYMNQGDRS | 8.507 ± 0.065
VGWFFMYVPSSSAVFSKFLN | inactive
